Reference: paper PMC9524020

Key:
Assay in all cases: SPR
[1] = target: FcγRIIIa-158F-Monoantennae (human) (UniProt P08637)
[2] = target: FcγRIIIa-158V-Afucosylated (human)
[3] = target: FcγRIIIa-158V-CHO^WT (soluble FcγRIIIa, allotype 158V, from wild-type CHO) (human)
[4] = target: FcγRIIIa-158V-G2FS(2-6) (human)
[5] = target: FcγRIIIa-158F-G2FS(2-6) (human) (UniProt P08637)
[6] = target: FcγRIIIa-158V-HEK^WT (human)
[7] = target: FcγRIIIa-158V-G2FS(2-3) (human)
[8] = target: FcγRIIIa-158F-Hybrid (human) (UniProt P08637)
[9] = target: FcγRIIIa-158F-CHO^WT (soluble FcγRIIIa, allotype 158F, from wild-type CHO) (human) (UniProt P08637)
[10] = target: FcγRIIIa-158F-G2FS(2-3) (human) (UniProt P08637)
[11] = target: biotinylated, recombinant, human FcγRIIIa-158F from SinoBiological (human) (UniProt P08637)
[12] = target: FcγRIIIa-158V-Hybrid (human)
[13] = target: FcγRIIIa-158V-Oligomannose (human)
[14] = target: FcγRIIIa-158V-Monoantennae (human)
[15] = target: biotinylated, recombinant, human FcγRIIIa-158V from SinoBiological (human)
[16] = target: FcγRIIIa-158F-Afucosylated (human) (UniProt P08637)
[17] = target: FcγRIIIa-158F-HEK^WT (human) (UniProt P08637)
[18] = target: FcγRIIIa-158V, FcγRIIIa-Hybrid (human)
[19] = target: FcγRIIIa-158V, FcγRIIIa-Oligomannose (human)
[20] = target: FcγRIIIa-158V, FcγRIIIa-CHO^WT (human)
[21] = target: FcγRIIIa-158V, FcγRIIIa-G2FS(2-3) (human)
[22] = target: FcγRIIIa-158V, FcγRIIIa-Monoantennae (human)
[23] = target: FcγRIIIa-158V, FcγRIIIa-Afucosylated (human)
[24] = target: FcγRIIIa-158V, FcγRIIIa-HEK^WT (human)
[25] = target: FcγRIIIa-158V, FcγRIIIa-G2FS(2-6) (human)
Sequence of FcγRIIIa-158V, FcγRIIIa-G2FS(2-6) (human) (P08637 17-208 F176V): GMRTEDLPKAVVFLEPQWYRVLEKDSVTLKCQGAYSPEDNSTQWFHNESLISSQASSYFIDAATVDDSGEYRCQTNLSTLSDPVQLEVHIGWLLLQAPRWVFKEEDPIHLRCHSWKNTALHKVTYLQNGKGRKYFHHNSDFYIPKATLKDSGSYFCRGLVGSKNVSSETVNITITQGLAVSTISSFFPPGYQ

Sequence of FcγRIIIa-158V, FcγRIIIa-Hybrid (human) (P08637 17-208 F176V): as above
Sequence of FcγRIIIa-158V, FcγRIIIa-HEK^WT (human) (P08637 17-208 F176V): as above
Sequence of FcγRIIIa-158V, FcγRIIIa-Monoantennae (human) (P08637 17-208 F176V): as above
Sequence of FcγRIIIa-158V, FcγRIIIa-CHO^WT (human) (P08637 17-208 F176V): as above
Sequence of FcγRIIIa-158V, FcγRIIIa-Afucosylated (human) (P08637 17-208 F176V): as above
Sequence of FcγRIIIa-158V, FcγRIIIa-G2FS(2-3) (human) (P08637 17-208 F176V): as above
Sequence of FcγRIIIa-158V, FcγRIIIa-Oligomannose (human) (P08637 17-208 F176V): as above
Sequence of FcγRIIIa-158F-Monoantennae (human) (P08637 17-208): as the sequence (P08637 17-208 F176V) above, with V160F counted along it
Sequence of FcγRIIIa-158F-CHO^WT (soluble FcγRIIIa, allotype 158F, from wild-type CHO) (human) (P08637 17-208): as the sequence (P08637 17-208 F176V) above, with V160F counted along it
Sequence of FcγRIIIa-158F-G2FS(2-6) (human) (P08637 17-208): as the sequence (P08637 17-208 F176V) above, with V160F counted along it
Sequence of FcγRIIIa-158F-Afucosylated (human) (P08637 17-208): as the sequence (P08637 17-208 F176V) above, with V160F counted along it
Sequence of FcγRIIIa-158F-G2FS(2-3) (human) (P08637 17-208): as the sequence (P08637 17-208 F176V) above, with V160F counted along it
Sequence of FcγRIIIa-158F-Hybrid (human) (P08637 17-208): as the sequence (P08637 17-208 F176V) above, with V160F counted along it
Sequence of FcγRIIIa-158F-HEK^WT (human) (P08637 17-208): as the sequence (P08637 17-208 F176V) above, with V160F counted along it
Sequence of biotinylated, recombinant, human FcγRIIIa-158F from SinoBiological (human) (P08637 17-208): as the sequence (P08637 17-208 F176V) above, with V160F counted along it

| Substance | Kd [1] | Kd [2] | Kd [3] | Kd [4] | Kd [6] | Kd [7] | Kd [8] | Kd [9] | Kd [10] | Kd [11] | Kd [12] | Kd [13] | Kd [14] | Kd [15] | Kd [16] | Kd [17] | Kd [18] | Kd [21] | Kd [22] | Kd [24] | also measured |
| --- | --- | --- | --- | --- | --- | --- | --- | --- | --- | --- | --- | --- | --- | --- | --- | --- | --- | --- | --- | --- | --- |
| IgG1-CHO^WT (anti-rabies human IgG1 mAb SO57 from wild-type CHO) (antibody) | 2350 nM | 464 nM | 489 nM | 443 nM | 440 nM | 624 nM | 2220 nM | 3490 nM | 2540 nM | 1780 nM | 456 nM | 242 nM | 489 nM | 440 nM | 2330 nM | 2160 nM |  |  |  |  | Kd [5]: 1680 nM |
| IgG1-G0 (mAb SO57) (antibody) | 170 nM | 29.6 nM | 36.9 nM | 29.7 nM |  |  |  | 213 nM | 184 nM |  | 33 nM | 14.2 nM | 37.6 nM | 32.9 nM | 164 nM |  |  |  |  |  |  |
| IgG1-G0 (mAb SO57, afucosylated, agalactosylated) |  |  |  |  |  |  |  |  |  |  |  |  |  |  |  |  | 33 nM | 38 nM | 38 nM |  | Kd [19]: 14 nM; Kd [20]: 37 nM |
| IgG1-G2F (mAb SO57) (antibody) | 1270 nM | 270 nM | 278 nM | 262 nM | 263 nM | 377 nM | 1210 nM | 1860 nM | 1370 nM | 965 nM | 297 nM |  | 305 nM |  | 1210 nM | 1150 nM |  |  |  |  | Kd [5]: 851 nM |
| IgG1-G2F (mAb SO57, galactosylated) |  |  |  |  |  |  |  |  |  |  |  |  |  |  |  |  | 300 nM | 380 nM | 300 nM | 260 nM | Kd [23]: 270 nM; Kd [25]: 260 nM |
| IgG1-G2FS(2-3) (mAb SO57) (antibody) | 1340 nM | 275 nM | 288 nM | 259 nM | 259 nM | 385 nM | 1220 nM | 1880 nM | 1330 nM | 953 nM | 302 nM | 143 nM | 312 nM | 275 nM | 1220 nM | 1190 nM |  |  |  |  | Kd [5]: 832 nM |
| IgG1-G2FS(2-3) (mAb SO57, α2-3 linked Sia) |  |  |  |  |  |  |  |  |  |  |  |  |  |  |  |  | 300 nM |  | 310 nM | 260 nM | Kd [20]: 290 nM; Kd [25]: 260 nM |
| IgG1-G2FS(2-6) (mAb SO57) (antibody) | 1110 nM | 260 nM |  |  | 261 nM | 398 nM | 1110 nM | 1860 nM | 1240 nM |  | 281 nM | 145 nM | 289 nM | 275 nM | 964 nM | 1050 nM |  |  |  |  |  |
| IgG1-G2FS(2-6) (mAb SO57, α2-6 linked Sia) |  |  |  |  |  |  |  |  |  |  |  |  |  |  |  |  |  | 400 nM | 290 nM | 260 nM | Kd [23]: 260 nM |
| IgG1-Hybrid (mAb SO57) (antibody) | 2200 nM | 808 nM | 869 nM | 573 nM | 693 nM | 1070 nM | 2660 nM | 4610 nM |  | 2230 nM | 471 nM | 399 nM | 426 nM | 598 nM | 2210 nM | 2510 nM |  |  |  |  |  |
| IgG1-Hybrid (mAb SO57, hybrid N-glycan) |  |  |  |  |  |  |  |  |  |  |  |  |  |  |  |  | 470 nM | 1100 nM |  | 690 nM | Kd [23]: 810 nM; Kd [19]: 400 nM; Kd [20]: 870 nM |
| IgG1-Monoantennae (mAb SO57) (antibody) |  | 698 nM | 635 nM | 755 nM | 643 nM | 935 nM |  |  |  | 3260 nM | 742 nM | 375 nM | 731 nM | 761 nM |  |  |  |  |  |  |  |
| IgG1-Monoantennae (mAb SO57, monoantennary N-glycan) |  |  |  |  |  |  |  |  |  |  |  |  |  |  |  |  | 740 nM | 930 nM | 730 nM | 640 nM | Kd [23]: 700 nM; Kd [19]: 380 nM; Kd [20]: 640 nM; Kd [25]: 750 nM |
| IgG1-Oligomannose (mAb SO57) (antibody) | 428 nM | 88.3 nM |  | 79.6 nM | 87.2 nM | 123 nM | 405 nM | 582 nM | 480 nM |  | 104 nM | 37.6 nM | 109 nM | 93.2 nM | 406 nM | 383 nM |  |  |  |  |  |
| IgG1-Oligomannose (mAb SO57, Man5) |  |  |  |  |  |  |  |  |  |  |  |  |  |  |  |  |  |  |  | 87 nM | Kd [23]: 88 nM; Kd [19]: 38 nM; Kd [25]: 80 nM |
